Data on 30 substances can be found in PMC6222646, “HIV-1 Integrase-Targeted Short Peptides Derived from a Viral Protein R Sequence” (Molecules : A Journal of Synthetic Chemistry and Natural …, 2018).

The first assay deals with HIV-1 integrase (IN) (HIV-1).
Experiment: not given
peptide 2c (Ac-FIHFRIA-amide) yielded a 3'-P IC50 (in vitro IN 3'-processing assay) of 74.5 µM and an ST IC50 (in vitro IN strand transfer assay) of 30.4 µM.
For peptide 3c (Ac-FIHFRAG-amide), the 3'-P IC50 (in vitro IN 3'-processing assay) amounted to 208 µM and the ST IC50 (in vitro IN strand transfer assay) was determined as 28 µM.
In the case of peptide 7b (FAHFRIG-amide), the 3'-P IC50 (in vitro IN 3'-processing assay) is above 111 µM and the ST IC50 (in vitro IN strand transfer assay) was above 111 µM.
Turning to peptide 6a (FIAFRIG), the 3'-P IC50 (in vitro IN 3'-processing assay) is 17.4 µM and the ST IC50 (in vitro IN strand transfer assay) stood at 6.7 µM.
In turn, peptide 12a (FIBFRIG) displayed a 3'-P IC50 (in vitro IN 3'-processing assay) of 6.5 µM and an ST IC50 (in vitro IN strand transfer assay) of 2.2 µM.
The matching figures for peptide 8a (AIHFRIG): 86.3 µM and 22.7 µM.
The matching figures for peptide 4c (Ac-FIHFAIG-amide): above 333 µM and 81 µM.
The matching figures for peptide 6b (FIAFRIG-amide): 95.4 µM and 35 µM.
Turning to peptide 2a (FIHFRIA), the 3'-P IC50 (in vitro IN 3'-processing assay) is above 111 µM and the ST IC50 (in vitro IN strand transfer assay) worked out at 34.7 µM.
As to peptide 15 (Biotin-linker-BIHFRIG), the 3'-P IC50 (in vitro IN 3'-processing assay) was found to be 32 µM and the ST IC50 (in vitro IN strand transfer assay) turned out to be 2.3 µM.
The matching figures for peptide 4a (FIHFAIG): above 111 µM and above 111 µM.
The matching figures for peptide 13a (FBHFRIG): 37 µM and 20 µM.
The matching figures for peptide 7a (FAHFRIG): above 111 µM and 73.5 µM.
In turn, peptide 6c (Ac-FIAFRIG-amide) had a 3'-P IC50 (in vitro IN 3'-processing assay) of 94 µM and an ST IC50 (in vitro IN strand transfer assay) of 3.5 µM.
The matching figures for peptide 7c (Ac-FAHFRIG-amide): above 333 µM and 127 µM.
Regarding peptide 11a (FIHBRIG), the 3'-P IC50 (in vitro IN 3'-processing assay) came to 34 µM and the ST IC50 (in vitro IN strand transfer assay) was found to be 4.2 µM.
As to peptide 4b (FIHFAIG-amide), the 3'-P IC50 (in vitro IN 3'-processing assay) was above 111 µM and the ST IC50 (in vitro IN strand transfer assay) is above 111 µM.
In the case of peptide 3a (FIHFRAG), the 3'-P IC50 (in vitro IN 3'-processing assay) amounted to 66.5 µM and the ST IC50 (in vitro IN strand transfer assay) worked out at 22.4 µM.
Substance peptide 3b (FIHFRAG-amide) had a 3'-P IC50 (in vitro IN 3'-processing assay) above 111 µM and an ST IC50 (in vitro IN strand transfer assay) above 111 µM.
For peptide 1a (FIHFRIG), the 3'-P IC50 (in vitro IN 3'-processing assay) turned out to be 17.6 µM and the ST IC50 (in vitro IN strand transfer assay) is 1.3 µM.
In turn, peptide 5a (FIHARIG) yielded a 3'-P IC50 (in vitro IN 3'-processing assay) above 111 µM and an ST IC50 (in vitro IN strand transfer assay) of 46.6 µM.
peptide 5b (FIHARIG-amide) returned a 3'-P IC50 (in vitro IN 3'-processing assay) above 111 µM and an ST IC50 (in vitro IN strand transfer assay) above 111 µM.
peptide 9a (FIHFRBG) gave a 3'-P IC50 (in vitro IN 3'-processing assay) of 20 µM and an ST IC50 (in vitro IN strand transfer assay) of 4.3 µM.
Regarding peptide 2b (FIHFRIA-amide), the 3'-P IC50 (in vitro IN 3'-processing assay) was above 111 µM and the ST IC50 (in vitro IN strand transfer assay) came to 60.6 µM.
For peptide 10a (FIHFBIG), in that order: above 333 µM and 48 µM.
As for peptide 8b (AIHFRIG-amide), the 3'-P IC50 (in vitro IN 3'-processing assay) was above 111 µM and the ST IC50 (in vitro IN strand transfer assay) is above 111 µM.
For peptide 8c (Ac-AIHFRIG-amide), the 3'-P IC50 (in vitro IN 3'-processing assay) was above 333 µM and the ST IC50 (in vitro IN strand transfer assay) was determined as 46 µM.
For peptide 5c (Ac-FIHARIG-amide), in that order: above 333 µM and 117 µM.
For peptide 14a (BIHFRIG), in that order: 7.2 µM and 2.1 µM.

The next assay has as its target HIV-1 integrase (IN) (HIV-1).
Experiment: not given
The source holds these as a separate data set.
The substance “Vpr (69–75) peptide with the amino-terminal Phe (Vpr69) replaced with Glu (from UniProt P12520 69-75)” displayed a 3'-P IC50 (in vitro IN 3'-processing assay; data not shown) above 111 µM and an ST IC50 (in vitro IN strand transfer assay; data not shown) above 111 µM.

The next assay has as its target HIV-1 integrase (IN) (HIV-1). Nature of the assay: cross-linking.
As usually defined, the stoichiometry N is a count of units in the complex or per binding partner. Substance peptide 15 (Biotin-linker-BIHFRIG) came in with a stoichiometry N of 1.
